Measured values as given in PMC8260793, “A split protease-E. coli ClpXP system quantifies protein–protein interactions in Escherichia coli cells” (Communications Biology, 2021).
Values belong to the molecule of their own block, whether it stands above or below them.

Legend:
[1] = target: Csy4 of Z. mobilis Type I-F CRISPR/Cas complex; assay: SPEC system (split protease-E. coli ClpXP) in E. coli cells; settings: parent: 100; read off a plot
[2] = target: Csy2 of Z. mobilis Type I-F CRISPR/Cas complex; assay: as above; settings: parent: 100; read off a plot
[3] = target: Csy3 of Z. mobilis Type I-F CRISPR/Cas complex; assay: as above; settings: parent: 100; read off a plot
[4] = target: Cas1 of Z. mobilis Type I-F CRISPR/Cas complex; assay: as above; settings: parent: 100; read off a plot
[5] = target: Csy1 of Z. mobilis Type I-F CRISPR/Cas complex (Zymomonas mobilis); assay: split reporter (BiFC, NanoBiT); SPEC profiling of CRISPR/Cas effectors and Cas3 / Cas2-3 mutants in E. coli cells; sfGFP fluorescence by flow cytometry; interaction intensity normalized to cells expressing wt HRV 3 C protease
[6] = target: Csy2 of Z. mobilis Type I-F CRISPR/Cas complex (Zymomonas mobilis); assay: as above
[7] = target: Csy4 of Z. mobilis Type I-F CRISPR/Cas complex (Zymomonas mobilis); assay: as above
[8] = target: Cas1 of Z. mobilis Type I-F CRISPR/Cas complex (Zymomonas mobilis); assay: as above
[9] = target: Csy3 of Z. mobilis Type I-F CRISPR/Cas complex (Zymomonas mobilis); assay: as above
[10] = target: T1, Cas5 of E. coli K12 Type I-E CRISPR/Cas complex (E. coli K12, UniProt Q46898 1-224); assay: as above; settings: partners not purified
T1 construct: Cas5, effector of the type I-E CRISPR/Cas complex of E. coli K12; source: E. coli BL21(DE3) or BL21(DE3)-SPEC, expressed in the cells (IPTG induction)
T1 sequence (looked up): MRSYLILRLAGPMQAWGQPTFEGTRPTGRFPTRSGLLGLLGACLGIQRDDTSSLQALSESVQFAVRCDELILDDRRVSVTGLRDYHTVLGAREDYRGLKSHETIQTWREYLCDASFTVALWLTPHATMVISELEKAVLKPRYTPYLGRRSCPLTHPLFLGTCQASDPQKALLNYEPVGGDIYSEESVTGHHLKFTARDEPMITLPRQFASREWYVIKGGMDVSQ

[11] = target: T2, Cas2 of E. coli K12 Type I-E CRISPR/Cas complex (E. coli K12, UniProt P45956 1-94); assay: as above; settings: partners not purified
T2 construct: Cas2, effector of the type I-E CRISPR/Cas complex of E. coli K12; source: E. coli BL21(DE3) or BL21(DE3)-SPEC, expressed in the cells (IPTG induction)
T2 sequence (looked up): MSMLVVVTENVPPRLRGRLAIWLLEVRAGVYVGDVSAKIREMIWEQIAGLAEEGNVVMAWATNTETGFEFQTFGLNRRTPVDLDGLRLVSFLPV

[12] = target: T3, Cas7 of E. coli K12 Type I-E CRISPR/Cas complex (E. coli K12, UniProt Q46899 1-363); assay: as above; settings: partners not purified
T3 construct: Cas7, effector of the type I-E CRISPR/Cas complex of E. coli K12; source: E. coli BL21(DE3) or BL21(DE3)-SPEC, expressed in the cells (IPTG induction)
T3 sequence (looked up): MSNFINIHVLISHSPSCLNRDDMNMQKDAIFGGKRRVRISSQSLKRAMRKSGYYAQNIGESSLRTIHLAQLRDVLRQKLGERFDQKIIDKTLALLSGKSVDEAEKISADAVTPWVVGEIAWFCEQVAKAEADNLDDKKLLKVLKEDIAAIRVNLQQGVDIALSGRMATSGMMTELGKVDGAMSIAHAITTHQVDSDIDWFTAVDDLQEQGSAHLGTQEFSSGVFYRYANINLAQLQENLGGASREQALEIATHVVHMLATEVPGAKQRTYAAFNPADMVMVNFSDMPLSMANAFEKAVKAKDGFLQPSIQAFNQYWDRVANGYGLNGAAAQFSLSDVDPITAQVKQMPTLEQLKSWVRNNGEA

[13] = target: T4, Cas11 of E. coli K12 Type I-E CRISPR/Cas complex (E. coli K12, UniProt P76632 1-160); assay: as above; settings: partners not purified
T4 construct: Cas11, effector of the type I-E CRISPR/Cas complex of E. coli K12; source: E. coli BL21(DE3) or BL21(DE3)-SPEC, expressed in the cells (IPTG induction)
T4 sequence (looked up): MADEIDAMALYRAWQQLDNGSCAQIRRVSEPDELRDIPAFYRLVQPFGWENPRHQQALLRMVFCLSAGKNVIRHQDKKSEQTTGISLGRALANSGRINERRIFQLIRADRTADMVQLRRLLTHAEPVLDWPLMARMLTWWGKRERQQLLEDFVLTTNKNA

percent of parent [1]: 110%
percent of parent [2]: 110%
percent of parent [3]: 120%
percent of parent [4]: 97%
Molecule: Cas2-3 of Z. mobilis Type I-F CRISPR/Cas complex K458N

increase of the interaction over Cas2-3 wild type [5]: > 40%
Molecule: Cas2-3 D124A (Z. mobilis Type I-F) (natural protein)

increase of the interaction over Cas2-3 wild type [5]: > 40%
Molecule: Cas2-3 S639A/T641A (Z. mobilis Type I-F) (natural protein)

increase of the interaction over Cas2-3 wild type [5]: > 40%
Molecule: Cas2-3 K458N (Z. mobilis Type I-F) (natural protein)

percent of parent [1]: 110%
percent of parent [2]: 110%
percent of parent [3]: 110%
Molecule: Cas2-3 of Z. mobilis Type I-F CRISPR/Cas complex S639A; T641A

normalized interaction intensity [6]: 88%
normalized interaction intensity [7]: > 80%
normalized interaction intensity [8]: 99%
normalized interaction intensity [9]: > 80%
normalized interaction intensity [5]: 63%
Molecule: Cas2-3 of Z. mobilis Type I-F CRISPR/Cas complex (natural protein)

percent of parent [1]: 110%
percent of parent [3]: 110%
Molecule: Cas2-3 of Z. mobilis Type I-F CRISPR/Cas complex H123A

normalized interaction intensity [6]: > 80%
normalized interaction intensity [7]: > 80%
normalized interaction intensity [9]: 14%
Molecule: Cas1 of Z. mobilis Type I-F CRISPR/Cas complex (natural protein)

percent of parent [1]: 110%
percent of parent [2]: 78%
percent of parent [3]: 110%
Molecule: Cas2-3 of Z. mobilis Type I-F CRISPR/Cas complex D608N

normalized interaction intensity [6]: > 80%
normalized interaction intensity [7]: > 80%
Molecule: Csy1 of Z. mobilis Type I-F CRISPR/Cas complex (natural protein)

normalized interaction intensity [6]: 21%
normalized interaction intensity [5]: 10%
Molecule: Cas2-3 K127A (Z. mobilis Type I-F) (natural protein)

percent of parent [1]: 110%
percent of parent [3]: 110%
Molecule: Cas2-3 of Z. mobilis Type I-F CRISPR/Cas complex K127A

increase of the interaction over Cas2-3 wild type [5]: > 40%
Molecule: Cas2-3 D608N (Z. mobilis Type I-F) (natural protein)

increase of the interaction over Cas2-3 wild type [5]: > 40%
Molecule: Cas2-3 H123A (Z. mobilis Type I-F) (natural protein)

percent of parent [1]: 110%
percent of parent [3]: 110%
percent of parent [4]: 95%
Molecule: Cas2-3 of Z. mobilis Type I-F CRISPR/Cas complex D124A

normalized interaction intensity [10]: > 80%
normalized interaction intensity [11]: 56%
B1: Cas3 of E. coli K12 Type I-E CRISPR/Cas complex (natural protein, UniProt P38036 1-888, looked up)
chain: MEPFKYICHYWGKSSKSLTKGNDIHLLIYHCLDVAAVADCWWDQSVVLQNTFCRNEMLSKQRVKAWLLFFIALHDIGKFDIRFQYKSAESWLKLNPATPSLNGPSTQMCRKFNHGAAGLYWFNQDSLSEQSLGDFFSFFDAAPHPYESWFPWVEAVTGHHGFILHSQDQDKSRWEMPASLASYAAQDKQAREEWISVLEALFLTPAGLSINDIPPDCSSLLAGFCSLADWLGSWTTTNTFLFNEDAPSDINALRTYFQDRQQDASRVLELSGLVSNKRCYEGVHALLDNGYQPRQLQVLVDALPVAPGLTVIEAPTGSGKTETALAYAWKLIDQQIADSVIFALPTQATANAMLTRMEASASHLFSSPNLILAHGNSRFNHLFQSIKSRAITEQGQEEAWVQCCQWLSQSNKKVFLGQIGVCTIDQVLISVLPVKHRFIRGLGIGRSVLIVDEVHAYDTYMNGLLEAVLKAQADVGGSVILLSATLPMKQKQKLLDTYGLHTDPVENNSAYPLINWRGVNGAQRFDLLAHPEQLPPRFSIQPEPICLADMLPDLTMLERMIAAANAGAQVCLICNLVDVAQVCYQRLKELNNTQVDIDLFHARFTLNDRREKENRVISNFGKNGKRNVGRILVATQVVEQSLDVDFDWLITQHCPADLLFQRLGRLHRHHRKYRPAGFEIPVATILLPDGEGYGRHEHIYSNVRVMWRTQQHIEELNGASLFFPDAYRQWLDSIYDDAEMDEPEWVGNGMDKFESAECEKRFKARKVLQWAEEYSLQDNDETILAVTRDGEMSLPLLPYVQTSSGKQLLDGQVYEDLSHEQQYEALALNRVNVPFTWKRSFSEVVDEDGLLWLEGKQNLDGWVWQGNSIVITYTGDEGMTRVIPANPK
notes: Cas3, effector of the type I-E CRISPR/Cas complex of E. coli K12; source: E. coli BL21(DE3) or BL21(DE3)-SPEC, expressed in the cells (IPTG induction)

normalized interaction intensity [12]: > 80%
B2: Cas6 of E. coli K12 Type I-E CRISPR/Cas complex (natural protein, UniProt Q46897 1-199, looked up)
chain: MYLSKVIIARAWSRDLYQLHQGLWHLFPNRPDAARDFLFHVEKRNTPEGCHVLLQSAQMPVSTAVATVIKTKQVEFQLQVGVPLYFRLRANPIKTILDNQKRLDSKGNIKRCRVPLIKEAEQIAWLQRKLGNAARVEDVHPISERPQYFSGDGKSGKIQTVCFEGVLTINDAPALIDLVQQGIGPAKSMGCGLLSLAPL
notes: Cas6, effector of the type I-E CRISPR/Cas complex of E. coli K12; source: E. coli BL21(DE3) or BL21(DE3)-SPEC, expressed in the cells (IPTG induction)

normalized interaction intensity [13]: > 80%
normalized interaction intensity [10]: > 80%
normalized interaction intensity [11]: 92%
B3: Cas1 of E. coli K12 Type I-E CRISPR/Cas complex (natural protein, UniProt Q46896 1-305, looked up)
chain: MTWLPLNPIPLKDRVSMIFLQYGQIDVIDGAFVLIDKTGIRTHIPVGSVACIMLEPGTRVSHAAVRLAAQVGTLLVWVGEAGVRVYASGQPGGARSDKLLYQAKLALDEDLRLKVVRKMFELRFGEPAPARRSVEQLRGIEGSRVRATYALLAKQYGVTWNGRRYDPKDWEKGDTINQCISAATSCLYGVTEAAILAAGYAPAIGFVHTGKPLSFVYDIADIIKFDTVVPKAFEIARRNPGEPDREVRLACRDIFRSSKTLAKLIPLIEDVLAAGEIQPPAPPEDAQPVAIPLPVSLGDAGHRSS
notes: Cas1, effector of the type I-E CRISPR/Cas complex of E. coli K12; source: E. coli BL21(DE3) or BL21(DE3)-SPEC, expressed in the cells (IPTG induction)
